# Reference: patent US20200325237A1 (AVIDITY BIOSCIENCES, published 2020)
# Positions count from the first letter of the chain named.
# T1: TfR2 (transferrin receptor 2) (UniProt Q9UP52 105-801, limits assumed)
# T1 sequence (looked up): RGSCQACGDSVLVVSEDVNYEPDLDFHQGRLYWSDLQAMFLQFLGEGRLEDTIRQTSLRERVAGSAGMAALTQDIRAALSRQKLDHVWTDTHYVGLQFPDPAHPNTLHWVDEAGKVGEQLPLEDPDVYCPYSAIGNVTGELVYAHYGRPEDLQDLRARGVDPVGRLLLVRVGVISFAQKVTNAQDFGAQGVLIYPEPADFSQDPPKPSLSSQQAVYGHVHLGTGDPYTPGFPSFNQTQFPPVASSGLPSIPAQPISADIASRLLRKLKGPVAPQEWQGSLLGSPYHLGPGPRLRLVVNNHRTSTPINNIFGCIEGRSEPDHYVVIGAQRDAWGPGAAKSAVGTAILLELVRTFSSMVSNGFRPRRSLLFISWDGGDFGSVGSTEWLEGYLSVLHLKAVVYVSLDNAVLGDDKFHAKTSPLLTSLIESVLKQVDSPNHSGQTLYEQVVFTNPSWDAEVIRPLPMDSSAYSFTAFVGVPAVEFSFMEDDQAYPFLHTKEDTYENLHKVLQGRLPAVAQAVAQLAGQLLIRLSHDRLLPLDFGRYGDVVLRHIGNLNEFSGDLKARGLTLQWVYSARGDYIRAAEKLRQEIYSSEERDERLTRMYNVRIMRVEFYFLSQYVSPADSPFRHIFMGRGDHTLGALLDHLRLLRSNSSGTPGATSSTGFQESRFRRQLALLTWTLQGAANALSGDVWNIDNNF
# B1: 13E4-Variant 2i (antibody, human IgG1, kappa, L234A L235A)
# heavy: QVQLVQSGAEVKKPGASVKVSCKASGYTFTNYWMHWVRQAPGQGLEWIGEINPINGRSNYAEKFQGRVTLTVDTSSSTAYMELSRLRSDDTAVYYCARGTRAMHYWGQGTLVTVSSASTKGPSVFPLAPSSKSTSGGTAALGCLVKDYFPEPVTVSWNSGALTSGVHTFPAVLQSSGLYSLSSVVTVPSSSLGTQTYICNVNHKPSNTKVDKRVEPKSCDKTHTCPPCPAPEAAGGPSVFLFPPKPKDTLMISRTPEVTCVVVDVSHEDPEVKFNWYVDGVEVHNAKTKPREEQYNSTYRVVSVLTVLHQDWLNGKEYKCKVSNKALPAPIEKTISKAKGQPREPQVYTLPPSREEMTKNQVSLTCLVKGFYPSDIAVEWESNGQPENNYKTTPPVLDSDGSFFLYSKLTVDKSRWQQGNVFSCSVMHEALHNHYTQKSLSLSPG
# light: DIQMTQSPSSLSASVGDRVTITCRTSENIYNNLAWYQQKPGKSPKLLIYAATNLADGVPSRFSGSGSGTDYTLTISSLQPEDFATYYCQHFWGTPLTFGGGTKVEIKRTVAAPSVFIFPPSDEQLKSGTASVVCLLNNFYPREAKVQWKVDNALQSGNSQESVTEQDSKDSTYSLSSTLTLSKADYEKHKVYACEVTHQGLSSPVTKSFNRGEC
# notes: Humanized hIgG1 with Fc mutations; also called hIgG1 TfR-Var2i
# B2: 13E4-Variant 2iii (antibody, human IgG1, kappa, L234A L235A)
# heavy: QVQLVQSGAEVKKPGASVKVSCKASGYTFTNYWMHWVRQAPGQGLEWIGEINPINGRSNYAEKFQGRVTLTVDTSSSTAYMELSRLRSDDTAVYYCARGTRAMHYWGQGTLVTVSSASTKGPSVFPLAPSSKSTSGGTAALGCLVKDYFPEPVTVSWNSGALTSGVHTFPAVLQSSGLYSLSSVVTVPSSSLGTQTYICNVNHKPSNTKVDKRVEPKSCDKTHTCPPCPAPEAAGGPSVFLFPPKPKDTLMISRTPEVTCVVVDVSHEDPEVKFNWYVDGVEVHNAKTKPREEQYNSTYRVVSVLTVLHQDWLNGKEYKCKVSNKARPAPIEKTISKAKGQPREPQVYTLPPSREEMTKNQVSLTCLVKGFYPSDIAVEWESNGQPENNYKTTPPVLDSDGSFFLYSKLTVDKSRWQQGNVFSCSVMHEALHNHYTQKSLSLSPG
# light: B1 light
# notes: Humanized hIgG1 with Fc mutations; also called hIgG1 TfR-Var2iii
# B3: 13E4-Variant 9i (antibody, human IgG1, kappa, L234A L235A)
# heavy: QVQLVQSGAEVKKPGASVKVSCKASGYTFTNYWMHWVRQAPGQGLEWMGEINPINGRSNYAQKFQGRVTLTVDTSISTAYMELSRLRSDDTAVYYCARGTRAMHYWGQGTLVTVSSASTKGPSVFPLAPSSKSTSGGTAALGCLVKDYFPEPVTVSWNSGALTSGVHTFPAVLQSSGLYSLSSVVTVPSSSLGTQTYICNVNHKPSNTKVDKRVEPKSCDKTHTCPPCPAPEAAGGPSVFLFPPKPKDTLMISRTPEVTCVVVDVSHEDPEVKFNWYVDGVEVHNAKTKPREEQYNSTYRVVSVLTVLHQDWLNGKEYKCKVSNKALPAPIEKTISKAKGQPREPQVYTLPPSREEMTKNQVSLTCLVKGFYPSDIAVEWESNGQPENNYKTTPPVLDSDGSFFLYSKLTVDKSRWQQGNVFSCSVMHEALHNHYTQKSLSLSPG
# light: B1 light with S43A, D56E
# notes: Humanized hIgG1 with Fc mutations; also called hIgG1 TfR-Var9i
# B4: 13E4-Variant 2ii (antibody, human IgG1, kappa, L234A L235A)
# heavy: B2 heavy with K321G, R327L
# light: B1 light
# notes: Humanized hIgG1 with Fc mutations; also called hIgG1 TfR-Var2ii
# B5: 13E4-Variant 9ii (antibody, human IgG1, kappa, L234A L235A)
# heavy: B2 heavy with I48M, E62Q, S76I, K321G, R327L
# light: B1 light with S43A, D56E
# notes: Humanized hIgG1 with Fc mutations; also called hIgG1 TfR-Var9ii
# Target: T1, TfR2 (transferrin receptor 2)
# Assay: A450 plate assay on TfR2 (method not described in the text)
row,binding result,Binder
1,no binding (tested: 1000 nM),B1
2,no binding (tested: 1000 nM),B2
3,no binding (tested: 1000 nM),B3
4,no binding (tested: 1000 nM),B4
5,no binding (tested: 1000 nM),B5

# Target: T2, hTfR (human transferrin receptor, source and construct not stated) (human, UniProt P02786 89-760, limits assumed)
# Assay: SPR (BioRad ProteOn XPR36), mAb captured on Protein A, hTfR as analyte, 25 C
# Description: The binding kinetics of nine exemplary humanized anti-TfR antibodies and the parent chimeric antibody were characterized. Studies were run on a BioRad ProteOn XPR36 optical biosensor using a GLM sensor chip coated with Protein A for mAb capture. Running buffer included 10 mM EPES, 150 mM NaCl, pH 7.4 with 0.05 tween-20 with 0.2 mg/ml BSA. Data were collected at 25 degrees C. All mAbs were diluted into running buffer to 2 ug/ml based on the stock concentration provided. Each was then captured for 40 seconds over a Protein A surface.
# hTfR (100 ug) was dissolved into […] of water to yield a 4.3 uM stock concentration. hTfR was dilted to 43 nM as the highest concentration and tested in a 3 fold dilution series. hTfR was injected at 200 ul/min for 2 minutes followed by a one-hour dissociation phase.
# T2 sequence (P02786 89-760 limits assumed): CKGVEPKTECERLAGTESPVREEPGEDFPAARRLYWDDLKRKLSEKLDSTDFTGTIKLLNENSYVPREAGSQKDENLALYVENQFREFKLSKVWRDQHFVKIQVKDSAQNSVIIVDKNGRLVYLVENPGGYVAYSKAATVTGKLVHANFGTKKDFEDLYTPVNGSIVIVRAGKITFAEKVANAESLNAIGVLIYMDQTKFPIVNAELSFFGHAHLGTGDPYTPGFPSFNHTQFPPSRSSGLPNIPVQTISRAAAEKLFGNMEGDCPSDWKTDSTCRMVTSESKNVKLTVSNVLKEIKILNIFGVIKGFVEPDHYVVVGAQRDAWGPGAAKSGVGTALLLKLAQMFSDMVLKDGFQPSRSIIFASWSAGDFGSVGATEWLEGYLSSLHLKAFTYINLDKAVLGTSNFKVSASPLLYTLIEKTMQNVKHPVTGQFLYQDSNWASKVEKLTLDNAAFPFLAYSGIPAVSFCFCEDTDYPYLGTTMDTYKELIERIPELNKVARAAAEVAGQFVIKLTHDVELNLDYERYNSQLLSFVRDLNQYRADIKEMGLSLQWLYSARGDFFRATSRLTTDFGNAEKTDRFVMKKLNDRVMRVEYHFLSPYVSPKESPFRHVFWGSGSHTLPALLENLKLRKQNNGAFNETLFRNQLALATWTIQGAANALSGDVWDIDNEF
Kd,koff,kon,Binder
0.00043 nM,3.9e-07 s⁻¹,913000 M⁻¹ s⁻¹,B1
0.00095 nM,8.2e-07 s⁻¹,862000 M⁻¹ s⁻¹,B2
0.00121 nM,1.02e-06 s⁻¹,843000 M⁻¹ s⁻¹,B3
0.00049 nM,4.3e-07 s⁻¹,880000 M⁻¹ s⁻¹,B4
0.00231 nM,1.81e-06 s⁻¹,784000 M⁻¹ s⁻¹,B5

# Target: T2, hTfR (human transferrin receptor, …)
# Assay: ELISA; ratio of the Kd on HFE-captured hTfR to the Kd on directly coated hTfR
row,Kd(HFE+TfR)/Kd(TfR),Binder
1,11.1,B1
2,11.9,B2
3,13.6,B3
4,9.9,B4
5,10.4,B5

# Target: T2, hTfR (human transferrin receptor, …)
# Assay: ELISA; ratio of the Kd on transferrin-captured hTfR to the Kd on directly coated hTfR
# Description: (§1) Antibodies were biotinylated using 50 fold molar excess of EZ-Link No weigh NHS-Biotin (Thermo Scientific A39256) following manufacturer's instructions. Half-well high-bind plates (Costar #3690) were coated with 500 ng/mL purified human holo-transferrin (R&D Systems 2914-HT) in PBS at 4° C. overnight. For comparison, plates were coated directly with hTfR. Plates were washed four times with 100 μL of Tris buffered saline+Tween (20×TBST, Cell Signaling 9997S). 100 μL of Superblock (ThermoFisher PI-37535) was added to each well and incubated for 1 hour at room temperature. The wash step was repeated before the addition of the hTfR (200 ng/mL in 25 μl) to the transferrin plates, or Superblock to the hTfR plates, and incubated for 30 minutes. Biotinylated antibodies were diluted to 20 nM for the high concentration and added to the plates with 3-fold serial dilution. 25 μl/well was added to the 25 μl already in the plate. Plates were incubated for 1 hour, and wash step was repeated. Streptavidin-HRP (R&D Systems DY998) was added following recommended dilution on the package insert, and a final wash step was done. Binding was measured by the addition of 50 μL of 1-Step™ Ultra TMB-ELISA (ThermoFisher, 34028), incubated for 5 minutes, and the reaction was stopped with the addition of 25 μL of Stop Solution 2N sulfuric Acid (R&D Systems DY994). Absorbance was measured at 450 nm, with reference wavelength 570 nm subtracted. Binding constants were determined using GraphPad Prism Specific Binding with Hill Slope. Change in antibody binding constants in the presence versus absense of transferrin is considered relative to the commercially available antibody which is known to have an overlapping epitope with transferrin (AF2474, R&D Systems).
row,Kd(Tf+TfR)/Kd(TfR),Binder
1,2.8,B1
2,2.1,B2
3,2.2,B3
4,2.5,B4
5,2.6,B5

# Target: T3, recombinant cyno transferrin receptor protein (Sino Biological 90253-C07H) (cyno, UniProt H9EXL1 89-760 (rhesus entry))
# T3 construct: Bought protein coated on ELISA plates; also called recombinant cyno TfR1; cynoTfR1
# Assay: ELISA on plate-coated recombinant cyno TfR1 (CD71); fit: specific binding with Hill slope
# Description: (§2) Half-well high-binding 96-well plates (Costar #3690) were coated with recombinant human transferrin receptor protein (Sino Biological 11020-H07H) or recombinant cyno transferrin receptor protein (Sino Biological 90253-C07H) at 1 ng/μL in PBS (Gibco 14190) and incubated overnight at 4° C. Plates were washed four times with 100 μL of Tris buffered saline+Tween (20×TBST, Cell Signaling 9997S). 100 μL of Superblock (ThermoFisher PI-37535) was added to each well and incubated for 1 hour at room temperature. The wash step was repeated before the addition of the samples. Samples were added at concentrations up to 10 nM, 50 μL/well. Plates were incubated for another hour at room temp and wash step repeated. Secondary antibody (Peroxidase AffiniPure Goat Anti-Human IgG, Fcγ Fragment Specific, Jackson Immunoresearch, 109-035-098) was diluted 1:5000 in Superblock and 50 μL/well added. Plates were incubated for 1 hour at room temperature and washed one more time. Binding was measured by the addition of 50 μL of 1-Step™ Ultra TMB-ELISA (ThermoFisher, 34028), incubated for 5 minutes, and the reaction was stopped with the addition of 25 μL of Stop Solution 2N sulfuric Acid (R&D Systems DY994). Absorbance was measured at 450 nm, with reference wavelength 570 nm subtracted. Binding constants were determined using GraphPad Prism Specific Binding with Hill Slope.
# T3 sequence (chain, as listed by the source C07H C07H): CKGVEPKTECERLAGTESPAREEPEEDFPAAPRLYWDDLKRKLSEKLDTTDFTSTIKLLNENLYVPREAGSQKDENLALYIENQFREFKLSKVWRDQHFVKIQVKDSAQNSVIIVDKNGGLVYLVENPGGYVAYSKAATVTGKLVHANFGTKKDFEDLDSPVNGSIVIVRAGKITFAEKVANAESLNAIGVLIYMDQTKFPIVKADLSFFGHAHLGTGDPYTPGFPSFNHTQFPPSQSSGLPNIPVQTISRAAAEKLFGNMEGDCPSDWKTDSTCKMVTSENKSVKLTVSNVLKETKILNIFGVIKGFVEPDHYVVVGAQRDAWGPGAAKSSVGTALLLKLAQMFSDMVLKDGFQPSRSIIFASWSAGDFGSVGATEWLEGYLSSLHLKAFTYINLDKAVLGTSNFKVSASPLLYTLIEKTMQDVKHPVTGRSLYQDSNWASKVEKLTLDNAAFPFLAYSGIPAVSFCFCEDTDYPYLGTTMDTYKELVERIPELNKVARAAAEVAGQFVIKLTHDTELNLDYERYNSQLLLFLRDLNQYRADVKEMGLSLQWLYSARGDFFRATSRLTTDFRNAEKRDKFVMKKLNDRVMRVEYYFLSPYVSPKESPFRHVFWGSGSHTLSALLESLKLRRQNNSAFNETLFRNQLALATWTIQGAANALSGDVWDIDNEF
Bmax,Kd,h,Binder
93.1 % max binding,0.012 nM,1.56,B1
94.3 % max binding,0.0092 nM,1.35,B2
95 % max binding,0.011 nM,1.51,B3
94.2 % max binding,0.0127 nM,1.58,B4
94.3 % max binding,0.0114 nM,1.74,B5

# Target: T4, recombinant human transferrin receptor protein (Sino Biological 11020-H07H) (human, UniProt P02786 89-760)
# T4 construct: Bought protein coated on ELISA plates; also called recombinant human TfR1; human TfR1
# Assay: ELISA on plate-coated recombinant human TfR1 (CD71); fit: specific binding with Hill slope
# Description: as §2
# T4 sequence (P02786 89-760 limits assumed): as the sequence (P02786 89-760 limits assumed) above
Bmax,Kd,h,Binder
94.2 % max binding,0.00817 nM,1.35,B1
95 % max binding,0.00958 nM,1.2,B2
95.7 % max binding,0.00973 nM,1.22,B3
92.9 % max binding,0.00964 nM,1.43,B4

# Target: T2, hTfR (human transferrin receptor, …)
# Assay: ELISA, biotinylated antibody on hTfR captured by plate-coated HFE (HFE+TfR); fit: specific binding with Hill slope
Bmax,Kd,h,Binder
3 A450,0.273 nM,1.63,B1
2.66 A450,0.289 nM,1.26,B2
2.79 A450,0.341 nM,1.37,B3
3.15 A450,0.227 nM,1.64,B4
3 A450,0.229 nM,1.36,B5

# Target: T2, hTfR (human transferrin receptor, …)
# Assay: ELISA, biotinylated antibody on hTfR captured by plate-coated human holo-transferrin (Tf+TfR); fit: specific binding with Hill slope
# Description: as §1
Bmax,Kd,h,Binder
3.48 A450,0.0678 nM,1.49,B1
3.47 A450,0.0522 nM,1.61,B2
3.53 A450,0.0559 nM,1.45,B3
3.53 A450,0.0578 nM,1.45,B4
3.51 A450,0.057 nM,1.48,B5

# Target: T4, recombinant human transferrin receptor …
# Assay: ELISA on plate-coated recombinant human TfR1 (CD71); fit: specific binding with Hill slope (row labels blank in the lower block; row taken by the order Bmax, h, Kd)
# Description: as §2
Bmax,Kd,h,Binder
95.2 % max binding,0.00823 nM,1.57,B5
